# B1: CDC14A (parent)
# chain: GPHPKSKIENGYPLHAPEAYFPYF
# Variants of: B1
# Assay: protein stability index of a GFP-peptide fusion (GPS, HEK-293T) (PSI 1-6); higher = more stable
# Conditions: c terminus: a fixed tail appended
# 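Note: lentivirally expressed fusions sorted by FACS into six bins by GFP to DsRed ratio, PSI derived from sequencing read proportions per bin multiplied by bin number.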
row,Variant,protein stability index
1,GPHPKSKIENGYDLHAPEAYFPYF [P13D],2.81
2,GPHPKSKIENGYKLHAPEAYFPYF [P13K],1.88
3,GPHPKSKIENGYGLHAPEAYFPYF [P13G],2.39
4,GPHPKSKIENGYALHAPEAYFPYF [P13A],2.57
5,GPHPKSKIENGYILHAPEAYFPYF [P13I],1.43
6,WPHPKSKIENGYPLHAPEAYFPYF [G1W],1.73
7,QPHPKSKIENGYPLHAPEAYFPYF [G1Q],2.03
8,LPHPKSKIENGYPLHAPEAYFPYF [G1L],2.05
9,NPHPKSKIENGYPLHAPEAYFPYF [G1N],2.56
10,YPHPKSKIENGYPLHAPEAYFPYF [G1Y],1.51
11,GPHPKSKIENGYPLHAPEAYFPMF [Y23M],2.32
12,GPHPKSKIENGDPLHAPEAYFPYF [Y12D],3.24
13,GPHPKSKIENGIPLHAPEAYFPYF [Y12I],2.82
14,GPHPKSKIENGYPLAAPEAYFPYF [H15A],2.45
15,GPHPKSKIENGYPLEAPEAYFPYF [H15E],2.79
16,GPHPKSKIENGYPLPAPEAYFPYF [H15P],2.57
17,GPHPKSKIENGYPLHKPEAYFPYF [A16K],2.12
18,GPHPKSKIENGYPLHVPEAYFPYF [A16V],2.21
19,GPHPKSKIENGYPLHIPEAYFPYF [A16I],2.04
20,GPHPKSKIENGYPLHGPEAYFPYF [A16G],2.77
21,GPHPKSKIENGYPLHDPEAYFPYF [A16D],2.45
22,GPHPKSKIENGYPLHEPEAYFPYF [A16E],2.4
23,GPHPKSKIENGYPLHHPEAYFPYF [A16H],2.32
24,GPKPKSKIENGYPLHAPEAYFPYF [H3K],2.46

row,Variant,protein stability index
1,GPTPKSKIENGYPLHAPEAYFPYF [H3T],1.91
2,GPMPKSKIENGYPLHAPEAYFPYF [H3M],2.19
3,GPAPKSKIENGYPLHAPEAYFPYF [H3A],2.4
4,GPGPKSKIENGYPLHAPEAYFPYF [H3G],2.54
5,GPNPKSKIENGYPLHAPEAYFPYF [H3N],2.54
6,GPLPKSKIENGYPLHAPEAYFPYF [H3L],2.19
7,GPHPVSKIENGYPLHAPEAYFPYF [K5V],1.92
8,GPHPESKIENGYPLHAPEAYFPYF [K5E],2.5
9,GPHPQSKIENGYPLHAPEAYFPYF [K5Q],2.77
10,GPHPNSKIENGYPLHAPEAYFPYF [K5N],2.07
11,GPHPLSKIENGYPLHAPEAYFPYF [K5L],2.37
12,GPHPKSVIENGYPLHAPEAYFPYF [K7V],2.59
13,GPHPKSNIENGYPLHAPEAYFPYF [K7N],2.57
14,GPHPKSIIENGYPLHAPEAYFPYF [K7I],1.98
15,GPHPKSCIENGYPLHAPEAYFPYF [K7C],2.23
16,GPHPKSSIENGYPLHAPEAYFPYF [K7S],2.31
17,GPHPKSKIENGYPLHAYEAYFPYF [P17Y],1.79
18,GPHPKSKIENGYPLHACEAYFPYF [P17C],2
19,GPHPKSKIENGYPLHAHEAYFPYF [P17H],1.84
20,GPHPKSKIENGYPLHAKEAYFPYF [P17K],3.2
21,GPHPKSKIENGYPLHAREAYFPYF [P17R],1.8
22,GPHPKSKIENGYPLHAVEAYFPYF [P17V],1.92
23,GPHPKVKIENGYPLHAPEAYFPYF [S6V],2.16
24,GPHPKDKIENGYPLHAPEAYFPYF [S6D],2.59

row,Variant,protein stability index
1,GPHPKWKIENGYPLHAPEAYFPYF [S6W],1.88
2,GPHPKSKIENYYPLHAPEAYFPYF [G11Y],2.12
3,GPHPKSKIENQYPLHAPEAYFPYF [G11Q],2.31
4,GPHPKSKIENGYPLHAPEAYFQYF [P22Q],2.47
5,GPHPKSKIENGYPLHAPEAYFCYF [P22C],2.9
6,GPHPKSKIENGYPLHAPEAYFVYF [P22V],2.19
7,GPHPKSKIEPGYPLHAPEAYFPYF [N10P],2.52
8,GPHPKSKIEHGYPLHAPEAYFPYF [N10H],2.57
9,GPHPKSKIECGYPLHAPEAYFPYF [N10C],2.05
10,GPHPKSKIEWGYPLHAPEAYFPYF [N10W],1.89
11,GPHPKSKIENGYPLHAPEAYFPYP [F24P],3.08
12,GPHPKSKIENGYPLHAPEAYFPYA [F24A],3.43
13,GPHPKSKIENGYPLHAPEAYFPYV [F24V],2.75
14,GPHPKSKIPNGYPLHAPEAYFPYF [E9P],1.69
15,GPHPKSKIQNGYPLHAPEAYFPYF [E9Q],2.02
16,GPHPKSKIENGYPDHAPEAYFPYF [L14D],2.59
17,GPHPKSKIENGYPCHAPEAYFPYF [L14C],1.67
18,GPHPKSKIENGYPVHAPEAYFPYF [L14V],2.11
19,GPHPKSKIENGYPTHAPEAYFPYF [L14T],2.45
20,GPHPKSKIENGYPHHAPEAYFPYF [L14H],2.68
21,GPHPKSKIENGYPRHAPEAYFPYF [L14R],2.51
22,GPHPKSKIENGYPNHAPEAYFPYF [L14N],2.81
23,GPHPKSKIENGYPMHAPEAYFPYF [L14M],2.41
24,GPHPKSKQENGYPLHAPEAYFPYF [I8Q],2.7

row,Variant,protein stability index
1,GPHPKSKMENGYPLHAPEAYFPYF [I8M],2.09
2,GPHPKSKWENGYPLHAPEAYFPYF [I8W],1.77
3,GPHPKSKFENGYPLHAPEAYFPYF [I8F],2.23
4,GPHPKSKEENGYPLHAPEAYFPYF [I8E],3.29
5,GPHPKSKIENGYPLHAPSAYFPYF [E18S],2.28
6,GPHPKSKIENGYPLHAPYAYFPYF [E18Y],2.22
7,GPHPKSKIENGYPLHAPCAYFPYF [E18C],1.65
8,GPHPKSKIENGYPLHAPWAYFPYF [E18W],1.56
9,GPHFKSKIENGYPLHAPEAYFPYF [P4F],2.24
10,GPHLKSKIENGYPLHAPEAYFPYF [P4L],1.51
11,GPHNKSKIENGYPLHAPEAYFPYF [P4N],2.48
12,GPHYKSKIENGYPLHAPEAYFPYF [P4Y],1.89
13,GPHSKSKIENGYPLHAPEAYFPYF [P4S],1.86
14,GPHKKSKIENGYPLHAPEAYFPYF [P4K],2.29
15,GPHAKSKIENGYPLHAPEAYFPYF [P4A],2.52
16,GPHPKSKIENGYPLHAPEAYDPYF [F21D],3.55
17,GPHPKSKIENGYPLHAPEAYGPYF [F21G],2.8
18,GPHPKSKIENGYPLHAPEAYSPYF [F21S],2.96
19,GIHPKSKIENGYPLHAPEAYFPYF [P2I],2.28
20,GPHPKSKIENGYPLHAPEASFPYF [Y20S],2.55
21,GPHPKSKIENGYPLHAPEPYFPYF [A19P],2.41
22,GPHPKSKIENGYPLHAPEEYFPYF [A19E],2.36
